What was measured:
[1] = biological target: PlpD I117C with an N-terminal TwinStrepII tag (P. aeruginosa (strain PA14)) (UniProt Q9HYQ6); test: cross-linking; in vivo disulfide-bond formation: cysteine mutants expressed in P. aeruginosa SEH88; intact cells in ice-cold PBS with 0.2 mM 4-DPS (or ethanol, mock) for 30 min; TCA precipitation, SDS-PAGE, immunoblot with the anti-PlpD C-terminal peptide antiserum
[2] = biological target: PlpD I532C with an N-terminal TwinStrepII tag (P. aeruginosa (strain PA14)) (UniProt Q9HYQ6); test: cross-linking; in vivo disulfide-bond formation, time course: cells in ice-cold PBS with 0.2 mM 4-DPS for 0, 2, 5, 15, 30, 60, 90 and 120 min; immunoblot with the anti-PlpD C-terminal peptide antiserum
[3] = biological target: PlpD I532C with an N-terminal TwinStrepII tag (P. aeruginosa (strain PA14)) (UniProt Q9HYQ6); test: cross-linking; in vivo disulfide-bond formation: cysteine mutants expressed in P. aeruginosa SEH88; intact cells in ice-cold PBS with 0.2 mM 4-DPS (or ethanol, mock) for 30 min; TCA precipitation, SDS-PAGE, immunoblot with the anti-PlpD C-terminal peptide antiserum
[4] = biological target: PlpD M249C with an N-terminal TwinStrepII tag (P. aeruginosa (strain PA14)) (UniProt Q9HYQ6); test: cross-linking; in vivo disulfide-bond formation, time course: cells in ice-cold PBS with 0.2 mM 4-DPS for 0, 2, 5, 15, 30, 60, 90 and 120 min; immunoblot with the anti-PlpD C-terminal peptide antiserum
[5] = biological target: PlpD M249C with an N-terminal TwinStrepII tag (P. aeruginosa (strain PA14)) (UniProt Q9HYQ6); test: cross-linking; in vivo disulfide-bond formation: cysteine mutants expressed in P. aeruginosa SEH88; intact cells in ice-cold PBS with 0.2 mM 4-DPS (or ethanol, mock) for 30 min; TCA precipitation, SDS-PAGE, immunoblot with the anti-PlpD C-terminal peptide antiserum
[6] = biological target: PlpD S118C with an N-terminal TwinStrepII tag (P. aeruginosa (strain PA14)) (UniProt Q9HYQ6); test: as above
[7] = biological target: PlpD V113C with an N-terminal TwinStrepII tag (P. aeruginosa (strain PA14)) (UniProt Q9HYQ6); test: as above

PlpD I117C with an N-terminal TwinStrepII tag (from UniProt Q9HYQ6 1-728) (natural protein)
percent intermolecular disulfide bond formation [1]: 84%

PlpD I532C with an N-terminal TwinStrepII tag (from UniProt Q9HYQ6 1-728) (natural protein)
percent intermolecular disulfide bonding, peak of the time course [2]: 63% | percent of PlpD in intermolecular disulfide-bonded form (30 min 4-DPS) [3]: 65% | stoichiometry N [3]: 2

PlpD M249C with an N-terminal TwinStrepII tag (from UniProt Q9HYQ6 1-728) (natural protein)
percent intermolecular disulfide bonding, plateau of the time course (60-90 min) [4]: 91.5% | percent of PlpD in intermolecular disulfide-bonded form (30 min 4-DPS) [5]: 65% | stoichiometry N [5]: 2

PlpD S118C with an N-terminal TwinStrepII tag (from UniProt Q9HYQ6 1-728) (natural protein)
percent intermolecular disulfide bond formation [6]: 84%

PlpD V113C with an N-terminal TwinStrepII tag (from UniProt Q9HYQ6 1-728) (natural protein)
percent intermolecular disulfide bond formation [7]: 84%

— paper PMC11116518
